Data reported in patent US20150185222A1 (TORAY INDUSTRIES, published 2015).

Experiments:
[1] = target: T1, polypeptide consisting of the amino acid sequence of SEQ ID NO: 66 (human); experiment: trypsin or chymotrypsin digestion of antibody-CAPRIN-1 complex, protein G Sepharose, MS/MS of recovered peptides
T1 peptide: QQPQAASPSVPE
Description: The cancer cell surface-reactive mouse-chicken chimeric anti-human CAPRIN-1 monoclonal antibody #12 obtained in the paragraph (4) was used to identify a CAPRIN-1 epitope region recognized thereby. 100 μg of recombinant CAPRIN-1 proteins was dissolved in a protein inhibitor-free dissolving buffer and reacted with the mouse-chicken chimeric anti-human CAPRIN-1 monoclonal antibody #12. To this solution, a digestive enzyme trypsin or chymotrypsin was added, followed by digestion reaction at a suitable temperature. After the reaction, a protein G Sepharose carrier was added thereto, then reacted, and precipitated by centrifugation operation. After removal of the supernatant, the carrier was washed with a dissolving buffer and PBS and dissolved in 0.1% formic acid, and the supernatant was recovered. The recovered supernatant sample was applied to a reverse-phase column (HLB Extraction Cartridge (Waters-OASIS)) to obtain an antibody-free sample solution. The obtained sample was subjected to reverse-phase liquid chromatography (Chromatography Nanosytem (KYA Technologies Corp.)) to recover a solution containing only peptides. The solution was introduced to a tandem-type mass spectrometer Quadrupole-TOF Mass Spectrometer (Waters-MicroMass) and analyzed by MS/MS to detect the peptides contained in the sample. […]

[2] = target: human CAPRIN-1 expressed on the surface of human cancer cells and in human cancer tissues (human) (UniProt Q14444); experiment: flow cytometry, 2 µg antibody on 8 human breast cancer cell lines (ZR75-1, MCF7, T47D, SK-BR-3, MDA-MB-157, BT-20, MDA-MB-231V, MRK-nu-1); control mouse IgG1
[3] = target: human CAPRIN-1 expressed on the surface of human cancer cells and in human cancer tissues (human) (UniProt Q14444); experiment: flow cytometry on human cancer cell lines Caki-1, Caki-2, A498, T24, SKOV3, QG56, PC3, Hela, HT1080, T98G, U87MG, MNK28, Lovo, Capan-2, MIAPaCa-2, Panc-1, BxPC-3; control mouse IgG1

binding result [1]: binds
rate of increase in mean fluorescence intensity (MFI) over control [2]: > 35%
rate of increase in mean fluorescence intensity (MFI) over control [3]: > 35%
B1: mouse-chicken chimeric anti-human CAPRIN-1 monoclonal antibody #12 (antibody, mouse IgG1, V domains shown)
VH: AVTLDESGGGLQMSRGGLSLVCKASGFDFSSYQMNWIRQAPGKGLEFVAAINKFGNSTGHGAAVKGRVTISRDNGQSTVRLQLNNLRAEDTAIYFCTKHAYGYCGSGTWCAAGEIDAWGHGTEVIVSS
VL: QAASTQPSSVSANPGETVEITCSGGGSYSYGWFQQKSPGSAPVTVIYYNNKRPSDIPSRFSGSKSGSTGTLTITGVQADDEAVYYCGSGDSTDTAVFGAGTTLTVLG
notes: Variable regions of chicken antibody #11 with the constant regions of mouse IgG1 (H chain and L chain constant regions); produced in CHO-K1; also called mouse-chicken anti-human CAPRIN-1 monoclonal antibody (#12)
